# Measured values: PMC12424427
# pKd: −log10 of the molar value.
# Target: AGO2 (UniProt Q9UKV8)
# Test: MST
# Details: MST: labeled protein 5-150 nM, ligand 1E-10 to 1E-5 M, 5-15 min, buffer and temperature not stated, pull-down: 150 mM NaCl, 50 mM Tris pH 7.4, 1% Triton X-100 …
# Sequence of AGO2 (Q9UKV8 whole entry): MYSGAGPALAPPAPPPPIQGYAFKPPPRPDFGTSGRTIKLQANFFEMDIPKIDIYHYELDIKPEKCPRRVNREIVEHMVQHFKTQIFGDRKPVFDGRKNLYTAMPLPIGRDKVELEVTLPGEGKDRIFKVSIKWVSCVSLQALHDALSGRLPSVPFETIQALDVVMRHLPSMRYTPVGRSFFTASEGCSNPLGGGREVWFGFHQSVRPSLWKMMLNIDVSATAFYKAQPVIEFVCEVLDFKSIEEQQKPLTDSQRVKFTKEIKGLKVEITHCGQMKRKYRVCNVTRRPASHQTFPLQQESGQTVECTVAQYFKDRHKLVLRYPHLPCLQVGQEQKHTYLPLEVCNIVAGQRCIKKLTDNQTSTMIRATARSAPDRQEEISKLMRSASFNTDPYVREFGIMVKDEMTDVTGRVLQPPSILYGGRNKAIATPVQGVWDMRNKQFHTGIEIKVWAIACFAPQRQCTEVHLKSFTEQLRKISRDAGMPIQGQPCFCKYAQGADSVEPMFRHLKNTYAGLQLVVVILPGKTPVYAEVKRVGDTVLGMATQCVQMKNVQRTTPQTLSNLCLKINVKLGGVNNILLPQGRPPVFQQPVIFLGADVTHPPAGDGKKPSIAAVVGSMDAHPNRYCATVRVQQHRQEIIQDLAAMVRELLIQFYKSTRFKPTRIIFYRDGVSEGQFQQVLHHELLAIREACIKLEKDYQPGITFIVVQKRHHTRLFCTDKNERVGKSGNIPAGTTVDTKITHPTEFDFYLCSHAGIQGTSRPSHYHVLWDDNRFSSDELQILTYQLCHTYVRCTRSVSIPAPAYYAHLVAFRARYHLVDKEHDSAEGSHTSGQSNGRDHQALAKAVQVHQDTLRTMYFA
substance,measurement,setting,value
3p-hpRNA (5'ppp hairpin RNA),pKd,"no competitor, 5'-triphosphate",6.69
5'ppp-dsRNA,pKd,5'-triphosphate,5.66
5'ppp-dsRNA Control (dsRNA control),pKd,no 5'-triphosphate,5.66
